# From US20040110170A1, “Cloning and characterization of calcitonin gene related peptide receptors” (priority 2002, published 2004)
# Ends that are not written are not given here.
# Legend:
# [1] = molecular target: T1, JPr-CGRP receptor (Rattus norvegicus, UniProt O89039); experiment: Adenylate Cyclase Stimulation assay (cAMP), NIH/3T3 cells stably expressing JPr-CGRP receptor; format: cell-based; details: assay not specified
# T1 construct: expressed in transfected cells; pCDL-Srα vector)
# Experimental: The cells were washed with 1 ml of a nutrient deficient DMEM solution (Gibco-BRL, Gaithersburg, Md.) to remove excess radioisotope and incubated for 10 minutes (37° Celsius). […] Peptide was added in 5 μL aliquots to 21 of the 24 wells with three receiving no peptide to serve as a baseline for stimulation. The remaining 21 wells were incubated at 37° Celsius with increasing concentrations of the indicated peptide and the response was measured.
# [2] = molecular target: Skb-CGRP receptor (previously reported human CGRP type 1 receptor, Skb-CGRP-R) (human) (UniProt Q16602); experiment: Radioligand binding inhibition; unlabelled CGRP against 50 pM 125I-CGRP on stably transfected NIH/3T3 cells
# Skb-CGRP receptor (previously reported human CGRP type 1 receptor, Skb-CGRP-R) (human), sequence (Q16602 23-461): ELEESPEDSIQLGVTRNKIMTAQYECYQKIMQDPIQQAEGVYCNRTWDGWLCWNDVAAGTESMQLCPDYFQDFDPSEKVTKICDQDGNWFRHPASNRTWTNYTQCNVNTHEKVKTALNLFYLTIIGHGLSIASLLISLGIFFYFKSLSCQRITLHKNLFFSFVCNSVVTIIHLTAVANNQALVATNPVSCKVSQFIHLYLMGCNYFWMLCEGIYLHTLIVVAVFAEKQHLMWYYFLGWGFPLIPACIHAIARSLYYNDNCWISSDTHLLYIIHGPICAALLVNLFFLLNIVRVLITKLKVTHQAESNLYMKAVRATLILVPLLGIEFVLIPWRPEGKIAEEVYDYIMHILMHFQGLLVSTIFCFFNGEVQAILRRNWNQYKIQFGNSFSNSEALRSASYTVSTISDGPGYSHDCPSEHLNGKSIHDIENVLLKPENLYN
# [3] = molecular target: JPr-CGRP receptor (rat CGRP receptor, JPr-CGRP-R) (rat) (UniProt O89039); experiment: as above
# JPr-CGRP receptor (rat CGRP receptor, JPr-CGRP-R) (rat), sequence (O89039 whole entry): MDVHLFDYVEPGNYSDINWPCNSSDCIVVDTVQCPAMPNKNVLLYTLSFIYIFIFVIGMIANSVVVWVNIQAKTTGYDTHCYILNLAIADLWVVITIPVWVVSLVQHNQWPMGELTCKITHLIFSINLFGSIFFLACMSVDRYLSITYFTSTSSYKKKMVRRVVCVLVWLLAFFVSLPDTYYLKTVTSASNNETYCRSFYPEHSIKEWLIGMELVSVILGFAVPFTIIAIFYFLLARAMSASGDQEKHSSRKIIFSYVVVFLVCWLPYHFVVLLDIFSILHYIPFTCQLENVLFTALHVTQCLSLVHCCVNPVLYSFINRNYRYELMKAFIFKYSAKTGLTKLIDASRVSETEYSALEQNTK
# [4] = test system: vector control transfected HEK 293 cells; details: cited from earlier work
# T1 sequence (O89039 whole entry): as above
Substance,response of the JPr-CGRP receptor to related peptides [1],other results
Adrenomedullin: peptide related to CGRP,shows response,
"Amylin: peptide related to CGRP, tested on the receptor (KCNTATCATQRLANFLVHSSNNFGAILSSTNVGSNTY; not fully specified (C-terminus, bridges); cysteine pairing not given here; UniProt P10997 34-70, looked up)",shows response,
Calcitonin,shows response,
Calcitonin Gene Related Peptide (CGRP),,IC50 [2]: 0.501 nM; IC50 [3]: 0.0398 nM
"human Calcitonin: human Calcitonin, has cross reactivity with the CGRP receptor (CGNLSTCMLGTYTQDFNKFHTFPQTAIGVGAP; not fully specified (C-terminus, bridges); ends and bridges not checked; UniProt P01258 85-116, looked up)",,cAMP accumulation as % of the maximum cAMP induced by CGRP in Skb-CGRP-R transfected cells [4]: 75%
